In assay [1] the target is T1, Peptide antigen CNIKHVPGGGSVQIVYKPVD (human, conjugated to BSA in the ELISA (to KLH via the N-terminal cysteine in the immunogen)).
T1 construct: also called original immunization peptide; immunizing Tau peptide
T1 peptide: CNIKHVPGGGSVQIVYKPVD
Briefly: ELISA screening of hybridoma clones. The procedure: One month after the boost immunization, antisera were collected from the mice and antibody titers assessed by ELISA to measure immunoreactivity against the original immunizing Tau peptide and both 2N4R and 1N3R recombinant Tau proteins. Briefly, either 150 ng of Peptide antigen conjugated to BSA or 50 ng of 2N4R or 1N3R recombinant Tau protein (Enzo Life Sciences, cat. no's BML-SE321 and BML-SE323 respectively) were used to coat each well of a 96-well plate (Costar cat. no. 2797) in 10 mM phosphate buffer, pH 7.0 at 37° C. for 1 hour. Plates were blocked in a final concentration of 1% BSA diluted in PBS at room temperature for 30 minutes. […] Following additional wash steps, antibody binding was detected by addition of 3,3′,5,5′-Tetramethylbenzidine (TMB) substrate. The enzymatic reaction was stopped with an equal volume of 2M H₂SO₄ and the well optical density was determined using a platereader at wavelength 450 nm.
Once mice with a high antibody titer had been determined, cells were isolated from the medial iliac lymph nodes and fused using polyethylene glycol with mouse myeloma SP2 cells to generate hybridomas. […] To give an approximation of relative binding, culture supernatant that was positive in the peptide ELISA and either recombinant protein, 2N4R or 1N3R, or both, were then evaluated in a competitive ELISA system. […]
(In an ELISA, binding on a coated surface is turned into a signal by an enzyme label.)

Assay [2] deals with T2, Human Tau 2N4R, wild type, recombinant full length (human, UniProt P10636 2-758).
T2 construct: Full length 2N4R isoform; monomer in SPR and ELISA; heparin-induced aggregates or seeds in the functional assays; also called Tau441; Tau-441
T2 sequence (P10636 other isoform, or with tags, fused parts or gaps limits assumed): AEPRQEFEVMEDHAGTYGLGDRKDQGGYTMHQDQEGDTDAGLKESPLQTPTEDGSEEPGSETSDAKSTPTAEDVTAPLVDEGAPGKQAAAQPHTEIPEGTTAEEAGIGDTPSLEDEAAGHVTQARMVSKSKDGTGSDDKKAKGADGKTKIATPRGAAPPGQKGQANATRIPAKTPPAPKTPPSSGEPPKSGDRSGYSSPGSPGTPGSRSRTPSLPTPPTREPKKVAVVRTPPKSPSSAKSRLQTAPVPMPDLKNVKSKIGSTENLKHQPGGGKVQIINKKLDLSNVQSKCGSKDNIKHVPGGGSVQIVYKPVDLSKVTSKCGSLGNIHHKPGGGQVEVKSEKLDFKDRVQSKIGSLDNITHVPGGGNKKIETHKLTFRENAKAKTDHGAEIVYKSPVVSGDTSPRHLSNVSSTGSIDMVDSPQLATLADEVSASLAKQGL
In words: SPR BIAcore, mAb captured by anti-mouse IgG, Tau flowed, 1:1 Langmuir. The procedure: (§1) All experiments were performed using a BIAcore™ T-100 instrument (GE Healthcare). 10 μL anti-human IgG (monoclonal mouse anti-human Fc) from human antibody capture kit (GE Healthcare) was diluted to 25 μL/mL in 200 μL final immobilization buffer (10 mM sodium acetate, pH 5.0). The flow rate was set to 5 μL/min, flowpath 1. Fifty μL N-hydroxysuccinamide (NETS) and 50 μL 1-ethyl-3-(3-dimethylaminopropyl) carbidiimide (EDC) were mixed and injected for 420 sec to activate the CM5 chip surface. The diluted antibody was injected for 360 seconds followed by 1 M ethanolamine for 420 seconds. The flowpath was then switched to flowpath 2. A new EDC/NHS mixture was prepared and the procedure was repeated for flow cell 2. The surface was conditioned by 2 injections of 30 sec using flowpath 1, 2 at 30 μL/min of 3M MgCl₂. For the anti-mouse surface, 10 μL anti-mouse IgG (polyclonal rabbit anti-mouse IgG) from mouse antibody capture kit (GE Healthcare) was diluted to 30 μL/mL in 324 μL final immobilization buffer (10 mM sodium acetate, pH 5.0). The flow rate was set to 5 μL/min, flowpath 3. Fifty μL NHS and 50 μL EDC were mixed and injected for 420 sec to activate the chip surface. The diluted antibody was injected for 420 sec. 1 M ethanolamine was injected for 420 sec. Flow path was switched to flowpath 4. A new EDC/NHS mixture was prepared and the procedure was repeated for flow cell 4. The surface was conditioned by 2 injections of 30 sec using flowpath 3, 4 at 30 μL/min of 10 mM glycine, pH 1.7.
(§2) Binding of humanized and mouse antibodies were analyzed by BIAcore™ to determine their relative association rates (ka), dissociation rates (kd), and equilibrium binding constants (KD). Anti-mouse or anti-human antibodies were immobilized on a CM5 chip and sample mAbs were captured on the chip. 2N4R Tau was flowed over the chip and binding observed. The binding constants kₐ, kd, and KD were determined using a 1:1 Langmuir fitting model. Both 7G6-HCzu12-based mAbs had similar kₐ and kd values (Table 8). However, the kₐ of 7G6-HCzu11 was decreased, though the kd was unaffected. Therefore, human residues in the Vh3 framework impact binding to Tau.

Assay [3] has as its target T2, Human Tau 2N4R, wild type, recombinant …. Described as above. The method, then: as §1, §2
The source holds these as a separate data set.

For assay [4] the target is unchanged. Briefly: SPR BIAcore, biotinylated mAb on streptavidin (CAP) chip, single cycle, 1:1 Langmuir. The procedure: 400 μg of each antibody was diluted to 2 mg/mL and buffer-exchanged into 0.1 M sodium bicarbonate, pH 8.3 using 0.5 mL Zeba™ 40 kDa MWCO desalting columns (Thermo). NHS-PEG4-biotin, prepared immediately before use by dissolving in water to a 20 mM final stock concentration, was added to antibodies at a 5:1 molar ratio (biotin:MAb) and conjugated for 1 hr at room temperature. Excess biotin was removed by two sequential buffer exchanges into 1×DPBS using 0.5 mL Zeba™ 40 kDa MWCO desalting columns. For the BIAcore™ assay, antibodies were diluted to 2 μg/mL in PBS-P+/0.2% BSA (the same preparation used for the running buffer), centrifuged at 14,000 g for 5 min at room temperature, and the supernatant transferred to a new tube. Injection time was subsequently determined for each antibody to achieve a capture level of ˜225 RU.
Biotinylated humanized and mouse mAbs were captured on a streptavidin-coated chip and kₐ, kd, and KD were determined for binding to Tau (Table 11). […] The affinity of 7G6-HCzu8-LCzu6, 7G6-HCzu24-LCzu15, 7G6-HCzu24-LCzu18, 7G6-HCzu25-LCzu15, and 7G6-HCzu25-LCzu18 were all similar.

Data on one molecule can be found in patent US20190112365A1 (EISAI R AND D MANAGEMENT, published 2019).

Broadly, the Kd is the free concentration of one partner at which half of the binding sites on the other are occupied at equilibrium, for simple one-to-one binding. A word on the koff: it is the first-order rate constant of dissociation. Usually kon stands for the second-order rate constant of association.

B1: murine 7G6 antibody (antibody, mouse IgG2b, V domains shown)
VH: QVQLLQPGAELVKPGASVIMSCKASGYTFTTYWITWVKQRPGQGLEWIGDIYPGSSICNYNEKFKSKATLTVDTSSSTAYMQLNSLTSEDSAVYYCAREDGYDAWFAYWGQGTLVTVSA
VL: DVLMTQTPLSLPVSLGDQASISCRSSQSILHSNGNTYLEWYLQKPGQSPKLLICKVSNRFSGVPDRFSGSGSGTDFTLKISRVEAEDLGVYYCFQGSHVPFTFGSGTKLEIK
notes: Mouse IgG2b, kappa, purified from hybridoma; also called ms7G6; mouse 7G6
In the case of B1, the binding result in assay [1] is recorded as “binds”. Moreover, the figures for the Kd in assay [2], in assay [3] and in assay [4] were 3.31 nM, 3.31 nM and 0.0636 nM, respectively. For the same molecule, the figures for the koff in assay [2], in assay [3] and in assay [4] were 0.00153 s⁻¹, 0.00153 s⁻¹ and 0.000195 s⁻¹, respectively. Moreover, the kon in assay [2] is 464000 M⁻¹ s⁻¹; in assay [3] it was 464000 M⁻¹ s⁻¹; in assay [4] it was 3.11e+06 M⁻¹ s⁻¹.
